Where “and” joins values, the source holds several entries; their conditions need not be identical. Equal entries are not always repeated. Where only a bound is given, the exact number is not on record here.

In data set [1] the test system is T1, TPLAL (MMP substrate, 5X library).
T1 sequence: TPLAL

Data set [2] concerns T2, VPVVM (MMP substrate, 5X library).
T2 sequence: VPVVM

In data set [3] the test system is T3, PVNVV (MMP substrate, 5X library).
T3 sequence: PVNVV

Data set [4] has as its system T4, VPMVV (MMP substrate, 5X library).
T4 sequence: VPMVV

For data set [5], the system named is T5, PMAVT (MMP substrate, 5X library).
T5 sequence: PMAVT

The test system of data set [6] is T6, VPLNM (MMP substrate, 5X library).
T6 sequence: VPLNM

The subject of data set [7] is T7, PMAVI (MMP substrate, 5X library).
T7 sequence: PMAVI

Data set [8] has as its system T8, VPVNM (MMP substrate, 5X library).
T8 sequence: VPVNM

Data set [9] deals with T9, MPLVM (MMP substrate, 5X library).
T9 sequence: MPLVM

Data set [10] has as its system T10, MPVVL (MMP substrate, 5X library).
T10 sequence: MPVVL

Data set [11] has as its system T11, PVPMV (MMP substrate, 5X library).
T11 sequence: PVPMV

Data set [12] has as its system T12, PVAMR (MMP substrate, 5X library).
T12 sequence: PVAMR

Data set [13] relates to T13, Dabcyl-SGDRMW(E-Edans)-amide.
T13 sequence: SGDRMW

Data set [14] has as its system T14, EP 4.9.
T14 sequence: SVLDRWMGG

Data set [15] deals with T15, EP 4.4.
T15 sequence: SEYDRQLGS

Data set [16] has as its system T16, EP 4.2.
T16 sequence: MHGERMGGS

The subject of data set [17] is T17, CyPet-YPet substrate with recognition sequence SGDRMW (EP4.3).
T17 sequence: SGDRMWHHHHHH

Data set [18] has as its system T18, EP 3.6.
T18 sequence: GSSDRARVW

Data set [19] deals with T19, EP 4.7.
T19 sequence: GSDDRRAGG

Data set [20] relates to T20, EP 4.6.
T20 sequence: SSGERMMGG

The subject of data set [21] is T21, negative control displaying the sequence GGQSGQ.
T21 sequence: GGQSGQ

In data set [22] the test system is T22, EP 4.10.
T22 sequence: GSSERAAAG

Data set [23] deals with T23, EP 2.2.
T23 sequence: AAVERWGGS

Data set [24] deals with T24, EP 4.1.
T24 sequence: SVDYRFLGS

Data set [25] concerns T25, EP 4.8.
T25 sequence: VRDYRMGGQ

Data set [26] concerns T26, EP 4.3.
T26 sequence: SSGDRMWGG

Data set [27] relates to T27, Canonical (enteropeptidase substrate).
T27 sequence: DDDDKGGQS

Data set [28] relates to T28, EP 2.5.
T28 sequence: MSGERMGGS

Data set [29] addresses T29, Canonical (caspase-3 substrate).
T29 chain: QDEVDGGQS
For % Conversion in this document: test concentration or dose not given here.

On to matrix metalloprotease-1, for which the % Conversion (fraction (head says % Conversion)) in [1] is 0.417; in data set [2], 0.366; in data set [3], 0.789; in data set [4], 0.814 and 0.443; in [5], 0.504; in data set [6], 0.844 and 0.61. For the same molecule, the % Conversion (fraction (head says % Conversion)) in data set [7] stood at 0.699; in data set [8] it was 0.76; in [9], 0.659; in [10] it was 0.428; in data set [11], 0.496; in data set [12], 0.729.

Consider “catalytic subunit light chain of enteropeptidase”, for which the kcat/KM of the synthetic fluorogenic peptide, relative to DDDDK in [13] was > 5 fold. For the same molecule, the Conversion (fraction converted) was 0.72 in [14]; 0.71 in data set [15]; 0.84 in data set [16]; 0.86 in data set [18]; 0.91 in data set [19]; 0.93 in data set [20]. For the same molecule, the Conversion (fraction converted) was determined as 0.78 in data set [22]; 0.69 in [23]; 0.84 in [24]; 0.87 in [25]; 0.97 in [26]; 0.15 in [27]. The molecule further yielded a Conversion (fraction converted) in data set [28] of 0.84. Moreover, the “cleavage rate of the CyPet-YPet fusion by fluorimetry, relative to DDDDK” value in [17] is “cleaved at a rate 17-fold faster than DDDDK”. The “change in fluorescence (SA-PE label) after incubation with enteropeptidase” value in data set [21] is “exhibited minimal change in fluorescence”. This molecule also showed a decrease in mean fluorescence intensity (SA-PE label) after incubation with enteropeptidase in [27] of 20 fold.

B1: caspase-3 (protein)
chain: MENTENSVDSKSIKNLEPKIIHGSESMDSGISLDNSYKMDYPEMGLCIIINNKNFHKSTGMTSRSGTDVDAANLRETFRNLKYEVRNKNDLTREEIVELMRDVSKEDHSKRSSFVCVLLSHGEEGIIFGTNGPVDLKKITNFFRGDRCRSLTGKPKLFIIQACRGTELDCGIETDSGVDDDMACHKIPVEADFLYAYSTAPGYYSWRNSKDGSWFIQSLCAMLKQYADKLEFMHILTRVNRKVATEFESFSFDATFHAKKQIPCIVSMLTKELYFYH
Regarding B1, the Conversion (fraction converted) in [29] is 0.95.

The record behind these values is patent US20070065878A1.
